Positions count from the first letter of the chain named. Where “and” joins values, the source holds several entries; their conditions need not be identical. Equal values may be shown once.
What was measured:
human IL-7 [1] = biological target: T1, human IL-7 (human, UniProt P13232 26-177); test: SPR, Biacore 8K, 37 °C; geometric mean KD from all experiments, with 85% confidence interval in brackets
T1 construct: also called hIL-7; rhIL-7
T1 sequence: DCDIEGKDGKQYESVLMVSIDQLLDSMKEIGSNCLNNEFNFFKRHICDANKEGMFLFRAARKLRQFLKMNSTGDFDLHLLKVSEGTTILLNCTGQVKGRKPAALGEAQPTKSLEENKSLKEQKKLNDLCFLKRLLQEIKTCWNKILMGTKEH

human IL-7 [2] = biological target: T1, human IL-7; test: cell-based or functional assay
cynomolgus monkey IL-7 [3] = biological target: T2, cynomolgus monkey IL-7 (cynomolgus monkey, UniProt A0A2K5W745 26-178); test: SPR, Biacore 8K, 37 °C (text value; Table 5 prints 73); 37 C; value of the running text
T2 construct: also called cynoIL-7; cynomolgus IL-7
T2 sequence: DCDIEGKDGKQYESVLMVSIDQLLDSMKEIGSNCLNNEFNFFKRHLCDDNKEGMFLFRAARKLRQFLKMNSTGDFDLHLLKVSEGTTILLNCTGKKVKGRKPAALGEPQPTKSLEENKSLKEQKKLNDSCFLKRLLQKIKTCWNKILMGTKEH
Excerpt: (§1) (Table 5). […] (Table 5).

cynomolgus monkey IL-7 [4] = biological target: T2, cynomolgus monkey IL-7; test: SPR, Biacore 8K, 37 °C, IL-7 as analyte
Excerpt: as §1

human IL-7 [5] = biological target: T1, human IL-7; test: SPR, Biacore 8K, 37 °C, IL-7 as analyte
Excerpt: as §1

human IL-7 [6] = biological target: T1, human IL-7; test: cell-based or functional assay; remark: listed apart in the source
cynomolgus monkey IL-7 [7] = biological target: T2, cynomolgus monkey IL-7; test: SPR, Biacore 8K, 25 °C, IL-7 as analyte
Excerpt: as §1

human IL-7 [8] = biological target: T1, human IL-7; test: SPR, Biacore 8K, 25 °C, IL-7 as analyte
Excerpt: as §1

B1: DRSPAI-L7B (antibody, human IgG1, kappa, V domains shown)
VH: QVQLVESGGGVVQPGRSLRLSCAASGFTFSSYGVHWVRQAPGKGLEWLAAIWTGGSTDYNSAFSSRFTISRDNSKNTLYLQMNSLRAEDTAVYYCARNGYGESFAYWGQGTLVTVSS
VL: DIQMTQSPSSLSASVGDRVTITCKASESLDHDGDSYINWYQQKPGKAPKLLIYMGSNVEFGVPARFSGSGSGTDFTLTISSLQPEDFATYYCQQSNVDPLTFGGGTKVEIKR
notes: Human IgG1 kappa; also called DRSPAI-171B; DRSPAI-17B
- Kd (human IL-7 [1]): 0.0674 nM
- IFN-γ production by PBMC, IC50 (IL-7 10 ng/ml, anti-CD3) (human IL-7 [2]): 196 pM and 29.4 ng/ml
- IL-17 production by Tmem, IC50 (IL-7 20 ng/ml) (human IL-7 [2]): 40.5 ng/ml and 270 pM
- Teff and Tmem proliferation (CD4+), IC50 (IL-7 10 ng/ml) (human IL-7 [2]): 79.5 ng/ml and 530 pM
- Teff and Tmem proliferation (CD4+), IC50 (IL-7 20 ng/ml) (human IL-7 [2]): 78 ng/ml and 520 pM
- pSTAT5 in CCRF-CEM cells, IC50 (IL-7 0.034 ng/ml, 2 pM) (human IL-7 [2]): < 0.15 ng/ml and < 1 pM
- pSTAT5 in whole blood (CD4+ T cells), median IC50 (IL-7 1 ng/ml) (human IL-7 [2]): 5.1 ng/ml and 34 pM
- Kd (cynomolgus monkey IL-7 [3]): ~0.075 nM
- Kd (cynomolgus monkey IL-7 [4]): 0.073 nM
- koff (cynomolgus monkey IL-7 [4]): 0.000462 s⁻¹
- kon (cynomolgus monkey IL-7 [4]): 6.17e+06 M⁻¹ s⁻¹
- Kd (human IL-7 [5]): 0.069 nM and 0.046 nM and 0.075 nM and 0.087 nM
- koff (human IL-7 [5]): 0.000568 s⁻¹ and 0.000678 s⁻¹ and 0.000826 s⁻¹ and 0.000515 s⁻¹
- kon (human IL-7 [5]): 8.28e+06 M⁻¹ s⁻¹ and 1.47e+07 M⁻¹ s⁻¹ and 1.1e+07 M⁻¹ s⁻¹ and 5.9e+06 M⁻¹ s⁻¹
- IL-6 secretion by CD4+ Tmem cells, IC50 (human IL-7 [6]): 0.202 nM
- IL-10 secretion by PBMC (rhIL-7 and anti-CD3), mean IC50 (human IL-7 [6]): 0.207 nM
- TNFα secretion by CD4+ Tmem cells, IC50 (human IL-7 [6]): 0.127 nM
- Kd (cynomolgus monkey IL-7 [7]): 0.053 nM
- koff (cynomolgus monkey IL-7 [7]): 0.00017 s⁻¹
- kon (cynomolgus monkey IL-7 [7]): 3.17e+06 M⁻¹ s⁻¹
- Kd (human IL-7 [8]): 0.031 nM and 0.034 nM
- koff (human IL-7 [8]): 0.000206 s⁻¹ and 0.000158 s⁻¹
- kon (human IL-7 [8]): 6.49e+06 M⁻¹ s⁻¹ and 4.65e+06 M⁻¹ s⁻¹

B2: A1290 (antibody, human IgG1, kappa, V domains shown)
VH: B1 VH with V34L, S61A, S64I
VL: B1 VL with E27Q, L29V, H31D, Y36F, M54V, G55A, V58L, F60S, V97E
- pSTAT5 in whole blood (CD4+ T cells), median IC50 (human IL-7 [6]): 18 pM and 0.00275 µg/ml

B3: A1291 (antibody, human IgG1, kappa, V domains shown)
VH: B1 VH with V34L, S61A, A62E
VL: B1 VL with E27H, L29V, H31D, I37M, G55A, V58L, F60S, V97E
- pSTAT5 in whole blood (CD4+ T cells), median IC50 (human IL-7 [6]): 16 pM and 0.00246 µg/ml

B4: A1294 (antibody, human IgG1, kappa, V domains shown)
VH: B1 VH with S31T, T53S, S61V
VL: B1 VL with E27Q, L29V, H31D, I37M, G55A, V58L, F60S, V97E
- pSTAT5 in whole blood (CD4+ T cells), median IC50 (human IL-7 [6]): 76 pM and 0.0114 µg/ml
